Assay results from IntAct's records for PubMed 29892012.

B1: Abl interactor 2 (Homo sapiens), Q9NYB9 (parent)
chain: MAELQMLLEEEIPGGRRALFDSYTNLERVADYCENNYIQSADKQRALEETKAYTTQSLASVAYLINTLANNVLQMLDIQASQLRRMESSINHISQTVDIHKEKVARREIGILTTNKNTSRTHKIIAPANLERPVRYIRKPIDYTILDDIGHGVKWLLRFKVSTQNMKMGGLPRTTPPTQKPPSPPMSGKGTLGRHSPYRTLEPVRPPVVPNDYVPSPTRNMAPSQQSPVRTASVNQRNRTYSSSGSSGGSHPSSRSSSRENSGSGSVGVPIAVPTPSPPSVFPAPAGSAGTPPLPATSASAPAPLVPATVPSSTAPNAAAGGAPNLADGFTSPTPPVVSSTPPTGHPVQFYSMNRPASRHTPPTIGGSLPYRRPPSITSQTSLQNQMNGGPFYSQNPVSDTPPPPPPVEEPVFDESPPPPPPPEDYEEEEAAVVEYSDPYAEEDPPWAPRSYLEKVVAIYDYTKDKEDELSFQEGAIIYVIKKNDDGWYEGVMNGVTGLFPGNYVESIMHYSE
B2: Abl interactor 2 (Homo sapiens), Q9NYB9 (parent)
chain: B1 chain
partner: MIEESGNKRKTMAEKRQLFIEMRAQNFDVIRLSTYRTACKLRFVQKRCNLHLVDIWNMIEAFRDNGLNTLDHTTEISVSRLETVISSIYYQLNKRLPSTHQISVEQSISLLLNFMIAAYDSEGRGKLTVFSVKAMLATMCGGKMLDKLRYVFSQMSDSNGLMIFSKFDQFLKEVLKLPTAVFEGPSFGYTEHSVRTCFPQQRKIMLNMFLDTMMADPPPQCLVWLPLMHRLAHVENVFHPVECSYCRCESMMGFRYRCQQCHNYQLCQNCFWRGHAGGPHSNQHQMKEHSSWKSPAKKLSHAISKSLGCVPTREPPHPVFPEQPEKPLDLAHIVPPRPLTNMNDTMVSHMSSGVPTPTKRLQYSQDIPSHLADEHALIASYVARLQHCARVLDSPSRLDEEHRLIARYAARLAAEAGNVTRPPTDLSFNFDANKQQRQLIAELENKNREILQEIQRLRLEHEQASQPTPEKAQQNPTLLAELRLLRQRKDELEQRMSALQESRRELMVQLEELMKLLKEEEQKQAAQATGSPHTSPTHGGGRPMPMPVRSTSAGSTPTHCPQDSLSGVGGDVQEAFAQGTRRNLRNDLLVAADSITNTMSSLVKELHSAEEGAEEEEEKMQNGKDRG
B3: Abl interactor 2 (Homo sapiens), Q9NYB9 (parent)
chain: B1 chain
partner: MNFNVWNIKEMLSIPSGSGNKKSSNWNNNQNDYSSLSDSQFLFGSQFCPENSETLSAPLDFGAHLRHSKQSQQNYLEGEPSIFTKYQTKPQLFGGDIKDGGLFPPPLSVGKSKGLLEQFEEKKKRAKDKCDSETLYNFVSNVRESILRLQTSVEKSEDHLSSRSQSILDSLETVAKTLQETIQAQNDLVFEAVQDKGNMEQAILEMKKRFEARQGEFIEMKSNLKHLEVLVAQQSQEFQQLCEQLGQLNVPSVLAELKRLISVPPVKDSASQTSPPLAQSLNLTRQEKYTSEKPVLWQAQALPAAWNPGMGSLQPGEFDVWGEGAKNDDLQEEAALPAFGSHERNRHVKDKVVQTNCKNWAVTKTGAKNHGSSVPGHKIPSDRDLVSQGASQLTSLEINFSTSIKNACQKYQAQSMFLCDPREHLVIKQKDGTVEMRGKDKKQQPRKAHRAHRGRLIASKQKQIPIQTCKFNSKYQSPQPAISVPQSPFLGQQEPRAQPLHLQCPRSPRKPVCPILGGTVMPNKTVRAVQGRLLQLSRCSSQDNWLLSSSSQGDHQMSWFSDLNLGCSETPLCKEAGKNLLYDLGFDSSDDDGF
B4: Abl interactor 2 (Homo sapiens), Q9NYB9 (parent)
chain: B1 chain
partner: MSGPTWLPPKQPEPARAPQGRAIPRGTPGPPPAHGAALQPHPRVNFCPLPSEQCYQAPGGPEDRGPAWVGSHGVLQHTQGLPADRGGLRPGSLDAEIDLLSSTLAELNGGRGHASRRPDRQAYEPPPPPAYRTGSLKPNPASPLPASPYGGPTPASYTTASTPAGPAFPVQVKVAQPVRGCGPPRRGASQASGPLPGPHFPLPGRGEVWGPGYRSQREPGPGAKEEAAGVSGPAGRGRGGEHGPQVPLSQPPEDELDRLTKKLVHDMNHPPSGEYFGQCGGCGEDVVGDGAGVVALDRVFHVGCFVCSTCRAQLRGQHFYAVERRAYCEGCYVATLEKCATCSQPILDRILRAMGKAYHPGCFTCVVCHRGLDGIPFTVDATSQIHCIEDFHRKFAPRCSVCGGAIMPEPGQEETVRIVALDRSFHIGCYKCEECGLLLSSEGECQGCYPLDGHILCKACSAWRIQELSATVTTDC
B5: Abl interactor 2 (Homo sapiens), Q9NYB9 (parent)
chain: B1 chain
partner: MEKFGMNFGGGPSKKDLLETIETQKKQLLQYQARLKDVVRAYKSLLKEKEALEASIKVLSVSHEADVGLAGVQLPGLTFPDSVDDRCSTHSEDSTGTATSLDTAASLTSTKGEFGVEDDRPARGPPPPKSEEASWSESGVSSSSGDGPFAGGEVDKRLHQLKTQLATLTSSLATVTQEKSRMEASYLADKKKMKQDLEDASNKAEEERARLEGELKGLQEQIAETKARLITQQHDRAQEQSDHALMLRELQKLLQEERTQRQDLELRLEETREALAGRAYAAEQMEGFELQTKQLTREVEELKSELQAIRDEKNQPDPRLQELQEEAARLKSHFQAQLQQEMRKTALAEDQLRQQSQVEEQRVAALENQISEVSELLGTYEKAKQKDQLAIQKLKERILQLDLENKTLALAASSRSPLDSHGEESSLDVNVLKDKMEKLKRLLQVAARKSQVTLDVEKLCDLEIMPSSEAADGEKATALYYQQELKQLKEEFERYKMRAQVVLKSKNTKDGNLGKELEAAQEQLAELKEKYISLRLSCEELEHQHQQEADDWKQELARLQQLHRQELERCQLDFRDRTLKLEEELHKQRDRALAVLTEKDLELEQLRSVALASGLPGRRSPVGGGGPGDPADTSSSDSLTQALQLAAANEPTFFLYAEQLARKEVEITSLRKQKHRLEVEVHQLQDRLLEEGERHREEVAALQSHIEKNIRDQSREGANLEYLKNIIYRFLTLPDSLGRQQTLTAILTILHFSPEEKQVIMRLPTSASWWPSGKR

Variants of: B1
Conditions: with ift20_human IFT20, Q8IY31
ift20_human IFT20, Q8IY31, sequence (Q8IY31 whole entry): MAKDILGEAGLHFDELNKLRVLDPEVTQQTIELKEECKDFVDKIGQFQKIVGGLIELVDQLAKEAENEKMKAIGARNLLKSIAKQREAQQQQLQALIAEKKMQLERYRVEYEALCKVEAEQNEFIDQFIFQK

Variant	effect of a mutation on the interaction
R373C	with no effect

Variants of: B1
Conditions: with k1h1_human KRT31, Q15323
k1h1_human KRT31, Q15323, sequence (Q15323 whole entry): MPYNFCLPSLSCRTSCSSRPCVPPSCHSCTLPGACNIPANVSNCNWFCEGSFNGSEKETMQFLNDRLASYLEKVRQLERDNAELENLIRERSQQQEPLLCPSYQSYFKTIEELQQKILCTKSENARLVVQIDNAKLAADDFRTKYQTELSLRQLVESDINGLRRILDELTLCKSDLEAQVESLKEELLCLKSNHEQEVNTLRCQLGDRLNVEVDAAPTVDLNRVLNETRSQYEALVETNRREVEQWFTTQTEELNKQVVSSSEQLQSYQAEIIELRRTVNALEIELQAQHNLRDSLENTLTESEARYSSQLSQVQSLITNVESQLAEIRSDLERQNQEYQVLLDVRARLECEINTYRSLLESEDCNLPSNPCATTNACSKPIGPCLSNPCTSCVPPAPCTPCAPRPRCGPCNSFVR

Variant	effect of a mutation on the interaction
R373C	with no effect

Variants of: B1
Conditions: with aapk2_human PRKAA2, P54646
aapk2_human PRKAA2, P54646, sequence (P54646 whole entry, looked up): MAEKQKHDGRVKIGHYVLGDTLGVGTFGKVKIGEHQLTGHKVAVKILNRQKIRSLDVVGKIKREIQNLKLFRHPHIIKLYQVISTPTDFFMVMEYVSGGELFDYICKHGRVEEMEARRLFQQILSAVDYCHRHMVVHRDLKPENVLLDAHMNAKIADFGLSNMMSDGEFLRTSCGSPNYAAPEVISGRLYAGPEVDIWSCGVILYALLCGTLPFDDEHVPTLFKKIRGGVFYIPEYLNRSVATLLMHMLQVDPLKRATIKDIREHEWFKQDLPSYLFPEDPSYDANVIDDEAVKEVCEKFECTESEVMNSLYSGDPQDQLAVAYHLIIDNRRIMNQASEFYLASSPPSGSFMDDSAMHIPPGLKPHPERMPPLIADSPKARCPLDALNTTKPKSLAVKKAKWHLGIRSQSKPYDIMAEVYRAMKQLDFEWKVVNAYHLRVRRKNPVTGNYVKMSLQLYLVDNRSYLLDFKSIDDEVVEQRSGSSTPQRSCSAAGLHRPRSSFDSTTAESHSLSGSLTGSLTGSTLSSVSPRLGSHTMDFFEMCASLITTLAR

Variant	effect of a mutation on the interaction
R373C	with no effect

Variants of: B1
Conditions: with stam2_human STAM2, O75886

Variant	effect of a mutation on the interaction
R373C	with no effect

Variants of: B1
Conditions: with aapk1_human PRKAA1, Q13131
aapk1_human PRKAA1, Q13131, sequence (Q13131 whole entry, looked up): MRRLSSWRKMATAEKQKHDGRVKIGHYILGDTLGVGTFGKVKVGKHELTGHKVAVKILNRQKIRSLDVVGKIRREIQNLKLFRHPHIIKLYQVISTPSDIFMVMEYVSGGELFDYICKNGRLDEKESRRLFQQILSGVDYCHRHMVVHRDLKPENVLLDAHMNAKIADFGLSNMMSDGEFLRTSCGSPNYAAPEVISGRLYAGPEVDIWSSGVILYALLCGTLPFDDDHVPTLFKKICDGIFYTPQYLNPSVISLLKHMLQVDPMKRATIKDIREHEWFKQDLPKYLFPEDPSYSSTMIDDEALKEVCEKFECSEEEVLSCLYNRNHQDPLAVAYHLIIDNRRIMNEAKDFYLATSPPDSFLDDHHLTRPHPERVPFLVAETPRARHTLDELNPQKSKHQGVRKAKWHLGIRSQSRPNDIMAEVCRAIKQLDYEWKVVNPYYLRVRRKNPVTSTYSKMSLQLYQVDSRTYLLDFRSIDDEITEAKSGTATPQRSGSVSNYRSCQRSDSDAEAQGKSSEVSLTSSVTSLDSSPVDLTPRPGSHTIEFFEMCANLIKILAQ

Variant	effect of a mutation on the interaction
R373C	with no effect

Variants of: B1
Conditions: with hnrpk_human HNRNPK

Variant	effect of a mutation on the interaction
R373C	with no effect

Variants of: B1
Conditions: with vasp_human VASP

Variant	effect of a mutation on the interaction
R373C	with no effect

Variants of: B1
Conditions: with KRT15, P19012
KRT15, P19012, sequence (P19012 whole entry): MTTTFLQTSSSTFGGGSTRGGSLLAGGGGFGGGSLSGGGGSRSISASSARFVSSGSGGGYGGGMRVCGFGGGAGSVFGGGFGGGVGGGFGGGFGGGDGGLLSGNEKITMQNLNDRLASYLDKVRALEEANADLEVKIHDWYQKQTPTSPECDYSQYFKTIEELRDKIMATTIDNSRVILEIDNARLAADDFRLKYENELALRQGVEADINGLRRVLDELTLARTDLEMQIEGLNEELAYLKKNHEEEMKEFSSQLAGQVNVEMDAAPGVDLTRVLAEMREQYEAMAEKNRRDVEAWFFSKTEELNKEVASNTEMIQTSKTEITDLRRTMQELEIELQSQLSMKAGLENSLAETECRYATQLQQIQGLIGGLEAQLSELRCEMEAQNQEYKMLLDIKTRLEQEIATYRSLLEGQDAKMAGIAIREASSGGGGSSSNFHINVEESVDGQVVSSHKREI

Variant	effect of a mutation on the interaction
R373C	with no effect

Variants of: B1
Conditions: with nup62_human NUP62, P37198
nup62_human NUP62, P37198, sequence (P37198 whole entry): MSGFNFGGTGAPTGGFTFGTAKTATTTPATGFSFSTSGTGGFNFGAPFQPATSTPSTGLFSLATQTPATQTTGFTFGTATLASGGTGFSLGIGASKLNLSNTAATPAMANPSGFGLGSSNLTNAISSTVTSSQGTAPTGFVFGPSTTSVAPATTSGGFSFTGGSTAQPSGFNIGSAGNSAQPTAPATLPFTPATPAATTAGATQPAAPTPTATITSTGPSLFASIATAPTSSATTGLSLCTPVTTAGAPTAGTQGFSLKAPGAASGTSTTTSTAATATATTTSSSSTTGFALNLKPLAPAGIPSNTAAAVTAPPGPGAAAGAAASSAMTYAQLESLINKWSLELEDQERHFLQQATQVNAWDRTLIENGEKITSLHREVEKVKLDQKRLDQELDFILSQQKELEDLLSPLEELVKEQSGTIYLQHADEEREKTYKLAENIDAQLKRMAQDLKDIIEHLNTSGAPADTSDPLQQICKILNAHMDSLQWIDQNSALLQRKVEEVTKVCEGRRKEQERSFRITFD

Variant	effect of a mutation on the interaction
R373C	with no effect

Variants of: B1
Conditions: with KRT19, P08727
KRT19, P08727, sequence (P08727 whole entry): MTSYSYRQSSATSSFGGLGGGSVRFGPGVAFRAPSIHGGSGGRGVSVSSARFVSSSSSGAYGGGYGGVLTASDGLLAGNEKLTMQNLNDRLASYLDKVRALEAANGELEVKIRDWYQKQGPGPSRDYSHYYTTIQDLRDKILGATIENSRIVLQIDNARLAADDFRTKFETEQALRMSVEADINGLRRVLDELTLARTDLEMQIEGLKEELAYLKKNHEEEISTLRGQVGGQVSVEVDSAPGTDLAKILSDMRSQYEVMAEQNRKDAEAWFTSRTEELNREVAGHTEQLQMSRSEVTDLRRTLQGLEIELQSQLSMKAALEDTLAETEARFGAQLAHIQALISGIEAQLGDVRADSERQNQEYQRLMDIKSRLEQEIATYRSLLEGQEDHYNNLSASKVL

Variant	effect of a mutation on the interaction
R373C	with no effect

Variants of: B1
Conditions: with nck2_human NCK2, O43639
nck2_human NCK2, O43639, sequence (O43639 whole entry): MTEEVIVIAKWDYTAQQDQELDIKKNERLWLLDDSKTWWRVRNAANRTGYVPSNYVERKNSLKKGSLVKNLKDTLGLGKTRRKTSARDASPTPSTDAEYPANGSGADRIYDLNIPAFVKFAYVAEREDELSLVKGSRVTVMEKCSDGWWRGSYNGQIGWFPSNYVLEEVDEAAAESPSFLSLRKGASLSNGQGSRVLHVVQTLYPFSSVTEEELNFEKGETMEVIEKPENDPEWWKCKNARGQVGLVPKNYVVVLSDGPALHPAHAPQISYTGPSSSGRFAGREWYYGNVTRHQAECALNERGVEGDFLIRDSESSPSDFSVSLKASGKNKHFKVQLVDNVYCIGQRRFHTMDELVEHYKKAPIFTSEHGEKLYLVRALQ

Variant	effect of a mutation on the interaction
R373C	with no effect

Variants of: B1
Conditions: with hgs_human HGS

Variant	effect of a mutation on the interaction
R373C	with no effect

Variants of: B1
Conditions: with sdcb1_human SDCBP

Variant	effect of a mutation on the interaction
R373C	with no effect

Variants of: B1
Conditions: with tri32_human TRIM32, Q13049
tri32_human TRIM32, Q13049, sequence (Q13049 whole entry): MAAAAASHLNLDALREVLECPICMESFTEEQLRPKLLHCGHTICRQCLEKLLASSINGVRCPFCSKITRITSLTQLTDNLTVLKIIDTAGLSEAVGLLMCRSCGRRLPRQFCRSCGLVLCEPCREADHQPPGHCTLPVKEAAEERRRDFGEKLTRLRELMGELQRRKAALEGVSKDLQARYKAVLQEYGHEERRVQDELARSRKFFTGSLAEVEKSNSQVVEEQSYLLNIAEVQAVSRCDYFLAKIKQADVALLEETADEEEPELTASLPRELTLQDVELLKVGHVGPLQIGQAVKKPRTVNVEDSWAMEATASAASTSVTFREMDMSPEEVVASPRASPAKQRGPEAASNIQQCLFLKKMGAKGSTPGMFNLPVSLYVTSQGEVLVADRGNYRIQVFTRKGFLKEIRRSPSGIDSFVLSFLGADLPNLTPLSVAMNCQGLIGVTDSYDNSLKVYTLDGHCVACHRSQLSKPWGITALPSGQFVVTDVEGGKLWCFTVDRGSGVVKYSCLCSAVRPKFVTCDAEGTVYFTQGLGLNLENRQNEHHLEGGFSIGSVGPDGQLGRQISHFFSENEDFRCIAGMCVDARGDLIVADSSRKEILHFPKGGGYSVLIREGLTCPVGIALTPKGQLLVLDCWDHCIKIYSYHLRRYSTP

Variant	effect of a mutation on the interaction
R373C	with no effect

Variants of: B1
Conditions: with pcm1_human PCM1, Q15154

Variant	effect of a mutation on the interaction
R373C	with no effect

Variants of: B1
Conditions: with vinc_human VCL

Variant	effect of a mutation on the interaction
R373C	with no effect

Variants of: B1
Conditions: with crx_human CRX

Variant	effect of a mutation on the interaction
R373C	with no effect

Variants of: B1
Conditions: with mr1l1_human MRFAP1L1, Q96HT8
mr1l1_human MRFAP1L1, Q96HT8, sequence (Q96HT8 whole entry): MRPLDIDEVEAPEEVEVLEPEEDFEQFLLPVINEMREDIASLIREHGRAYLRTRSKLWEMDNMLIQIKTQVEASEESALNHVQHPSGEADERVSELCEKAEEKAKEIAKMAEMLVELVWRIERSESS

Variant	effect of a mutation on the interaction
R373C	with no effect

Variants of: B1
Conditions: with efs_human EFS

Variant	effect of a mutation on the interaction
R373C	with no effect

Variants of: B2
Conditions: with dtnb_human DTNB

Variant	effect of a mutation on the interaction
E202K	with no effect

Variants of: B2
Conditions: with dtnb_human DTNB
Remark: another data set of the same source

Variant	effect of a mutation on the interaction
R373C	with no effect

Variants of: B3
Conditions: with iho1_human IHO1, Q8IYA8

Variant	effect of a mutation on the interaction
E202K	with no effect

Variants of: B3
Conditions: with iho1_human IHO1, Q8IYA8
Remark: another data set of the same source

Variant	effect of a mutation on the interaction
R373C	with no effect

Variants of: B4
Conditions: with trip6_human TRIP6, Q15654

Variant	effect of a mutation on the interaction
E202K	with no effect

Variants of: B4
Conditions: with trip6_human TRIP6, Q15654
Remark: another data set of the same source

Variant	effect of a mutation on the interaction
R373C	with no effect

Variants of: B5
Conditions: with gcc1_human GCC1, Q96CN9

Variant	effect of a mutation on the interaction
E202K	with no effect
